Experimental data: patent US20190338038A1 (CELLERANT THERAPEUTICS, published 2019)
Values belong to the binder of their own block, whether it stands above or below them.

What was measured:
[1] = molecular target: T1, soluble IL1-RAP form (isoform 2) (human, UniProt Q9NPH3 21-350); experiment: sandwich ELISA: plate coated with goat anti-IL1RAP antibody, then soluble IL1-RAP, then 2H8
T1 construct: Expressed in and purified from 293 cells; also called Q9NPH3-2; soluble form IL1RAP
T1 sequence: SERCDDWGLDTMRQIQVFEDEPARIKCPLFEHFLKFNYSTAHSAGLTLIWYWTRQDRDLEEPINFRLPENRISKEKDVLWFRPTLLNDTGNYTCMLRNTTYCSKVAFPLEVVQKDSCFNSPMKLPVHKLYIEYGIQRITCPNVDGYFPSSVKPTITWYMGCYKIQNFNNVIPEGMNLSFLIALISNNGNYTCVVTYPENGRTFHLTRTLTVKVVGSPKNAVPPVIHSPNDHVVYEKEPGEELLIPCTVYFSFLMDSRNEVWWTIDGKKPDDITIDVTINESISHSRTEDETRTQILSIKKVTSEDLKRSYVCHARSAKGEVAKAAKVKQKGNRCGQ
Description: (§1) The extracellular domain of IL1-RAP (Q9NPH3-4) and soluble IL1-RAP form (Q9NPH3-2) were expressed and purified from 293 cells. Sandwich ELISA was performed. The binding data shown in FIGS. 3A and 3B supports the conclusion that clone 2H8 binds to membrane-bound IL1-RAP better compared to soluble IL1-RAP form.

[2] = molecular target: T2, human interleukin 1 receptor accessory protein, membrane-bound form on cells (human, UniProt Q9NPH3 21-570); experiment: FACS titration on HNT-34 cells
T2 construct: On IL1-RAP-transfected 293 cells, AML cell lines (EOL-1, HNT-34, OCI-AML2, OCI-AML3), primary AML cells and HEK-Blue IL-1β cells; also called IL1-RAP; receptor IL1-RAP
T2 sequence: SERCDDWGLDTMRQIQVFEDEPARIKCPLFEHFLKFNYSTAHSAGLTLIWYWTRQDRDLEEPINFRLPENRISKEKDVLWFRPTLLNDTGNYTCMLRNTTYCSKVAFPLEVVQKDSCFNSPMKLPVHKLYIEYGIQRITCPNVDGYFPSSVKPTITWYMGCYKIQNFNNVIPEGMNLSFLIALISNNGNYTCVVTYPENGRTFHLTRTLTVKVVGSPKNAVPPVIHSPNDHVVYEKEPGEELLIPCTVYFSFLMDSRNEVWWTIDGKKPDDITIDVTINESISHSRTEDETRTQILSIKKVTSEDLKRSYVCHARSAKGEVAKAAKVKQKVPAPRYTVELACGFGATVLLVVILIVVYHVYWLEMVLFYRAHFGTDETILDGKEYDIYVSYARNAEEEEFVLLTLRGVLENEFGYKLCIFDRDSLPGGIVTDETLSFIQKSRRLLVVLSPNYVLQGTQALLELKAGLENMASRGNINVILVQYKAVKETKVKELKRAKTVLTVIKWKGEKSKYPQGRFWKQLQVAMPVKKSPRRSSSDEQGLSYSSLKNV

[3] = molecular target: T3, his-tagged extracellular domain (ECD) of IL1-RAP (human, UniProt Q9NPH3 21-367); experiment: sandwich ELISA: plate coated with goat anti-IL1RAP antibody, then extracellular domain of IL1-RAP, then 2H8
T3 construct: also called ECD IL1-RAP; IL1-RAP-His fusion protein
T3 sequence: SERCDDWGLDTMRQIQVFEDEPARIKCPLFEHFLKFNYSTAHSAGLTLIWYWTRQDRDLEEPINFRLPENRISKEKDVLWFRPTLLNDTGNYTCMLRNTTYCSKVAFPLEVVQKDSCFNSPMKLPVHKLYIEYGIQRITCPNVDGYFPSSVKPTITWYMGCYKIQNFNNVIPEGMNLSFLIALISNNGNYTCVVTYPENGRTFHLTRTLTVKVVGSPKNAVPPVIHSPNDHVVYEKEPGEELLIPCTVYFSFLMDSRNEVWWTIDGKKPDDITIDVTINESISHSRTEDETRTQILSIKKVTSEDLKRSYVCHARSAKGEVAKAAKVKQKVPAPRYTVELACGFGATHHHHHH
Description: as §1

[4] = molecular target: T2, human interleukin 1 receptor accessory …; experiment: FACS titration on IL1-RAP transfected 293 cells
[5] = molecular target: T2, human interleukin 1 receptor accessory …; experiment: FACS titration on EOL-1 cells
[6] = molecular target: T4, IL1-RAP (antigen of the kinetic measurements of Tables 5A and 5B) (human, UniProt Q9NPH3 21-359, limits assumed); experiment: kinetics, Table 5B; method and antigen form not stated; Table 5B
T4 sequence: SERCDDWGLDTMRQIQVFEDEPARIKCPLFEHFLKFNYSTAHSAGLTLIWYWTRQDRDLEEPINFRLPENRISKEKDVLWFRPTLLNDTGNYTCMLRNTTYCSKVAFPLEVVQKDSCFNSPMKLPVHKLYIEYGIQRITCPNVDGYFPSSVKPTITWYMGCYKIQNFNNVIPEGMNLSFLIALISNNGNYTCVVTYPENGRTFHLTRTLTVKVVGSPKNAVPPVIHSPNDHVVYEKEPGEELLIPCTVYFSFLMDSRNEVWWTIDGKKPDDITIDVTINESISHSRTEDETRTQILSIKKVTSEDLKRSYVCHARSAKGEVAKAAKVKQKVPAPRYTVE

[7] = molecular target: T2, human interleukin 1 receptor accessory …; experiment: FACS on EOL-1 cells, FITC; antibody concentration not given
[8] = molecular target: T4, IL1-RAP (antigen of the kinetic …); experiment: kinetics, Table 5A; method and antigen form not stated
[9] = molecular target: T2, human interleukin 1 receptor accessory …; experiment: FACS titration on EOL-1 cells; remark: listed apart in the source
[10] = molecular target: T4, IL1-RAP (antigen of the kinetic …); experiment: kinetics, Table 5A; method and antigen form not stated; Table 5A
[11] = molecular target: T4, IL1-RAP (antigen of the kinetic …); experiment: kinetics, Table 5B; method and antigen form not stated
[12] = molecular target: T5, recombinant mouse IL1-RAP (mouse, UniProt Q61730 21-359, limits assumed); experiment: FACS (GeoMean), bar series mIL1RAP
T5 sequence (looked up): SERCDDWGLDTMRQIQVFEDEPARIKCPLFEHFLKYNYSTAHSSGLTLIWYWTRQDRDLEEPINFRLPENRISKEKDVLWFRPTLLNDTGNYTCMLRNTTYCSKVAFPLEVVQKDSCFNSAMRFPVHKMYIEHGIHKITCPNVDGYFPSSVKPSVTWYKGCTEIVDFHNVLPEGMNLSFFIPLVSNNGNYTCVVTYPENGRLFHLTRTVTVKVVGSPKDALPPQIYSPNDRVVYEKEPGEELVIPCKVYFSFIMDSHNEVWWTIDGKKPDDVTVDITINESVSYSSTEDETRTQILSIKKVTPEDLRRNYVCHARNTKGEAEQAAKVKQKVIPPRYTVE

[13] = molecular target: T2, human interleukin 1 receptor accessory …; experiment: FACS titration on HNT-34 cells in PBS, no competitor

EC50 (read off the curve) [1]: ~1 µg/mL | EC50 (read off the curve) [2]: ~0.5 µg/mL | EC50 (read off the curve) [3]: ~0.6 µg/mL | EC50 (read off the curve) [4]: ~0.9 µg/mL | EC50 (read off the curve) [5]: ~1 µg/mL
B1: anti-IL1-RAP antibody clone 2H8 (antibody, V domains shown)
VH: QIQLVQSGPELKKPGETVKISCKASGYTFTDYSMHWVKQAPGKGLKWMGWINTETGEPTYADDFKGRFAFSLETSASTAYLQINNLKNEDTATYFCARYYGYFDYWGQGTTLTVSS
VL: DIVLTQSPASLAVSLGQRATISCRASESVDSYGNSFMHWYQQKPGQPPKLLIYRASNLESGIPARFSGSGSRTDFTLTINPVEADDVATYYCQQSNEDPWTFGGGTKLEIK
notes: Mouse monoclonal antibody; also called 2H8.3

Kd [6]: < 0.001 nM | MFI [7]: 32.2 | koff [8]: < 1e-07 s⁻¹ | kon [8]: 143000 M⁻¹ s⁻¹ | EC50 (read off the curve) [9]: ~200 nM | Kd [10]: < 0.001 nM | koff [11]: < 1e-07 s⁻¹ | kon [11]: 158000 M⁻¹ s⁻¹
B2: chimeric 54.9D7 (antibody, V domains shown)
VH: HVQLQQSGPELVRPGASVKLSCKASGYIFITYWMNWVKQRPGQGLEWVGQIFPASGTTYYNELFEGKATLTVDTSSNTAYMHLTSLTSEDSAVYYCARTDFYRYDGGYALDYWGQGTSLTVSS
VL: DIVLTQSPISLAVFLGQRATISCRASQSVSTSGYSSMHWYQQKAGQPPKLLIKYASDLESGVPVRFSGSGSGTDFILNIHPVEVEDIATYYCHHSWGIPMYTFGGGTKLEIKR
notes: Chimeric antibody; also called Chi54.9D7

binding result [12]: no binding (tested: not given) | EC50 (read off the curve) [2]: ~0.2 µg/mL | EC50 (read off the curve) [4]: ~0.4 µg/mL | EC50 (read off the curve) [5]: ~0.6 µg/mL | EC50 (read off the curve) [13]: ~0.9 µg/mL
B3: anti-IL1-RAP antibody clone 56.12G6 (antibody, V domains shown)
VH: RSNYSSLGAELVKPGASVTLSCEASGYTFTSYWIHWVKQRPGQGLEWIGEINPSHGHTTYNEKFKNKATLTVDKSSSTAYMQVSSLTSEDSAVYYCTRHYGSYYFDLWGQGTTLTVSS
VL: QIVLTQSPAIMSAFPGEKVTMTCRASSSVSYMHWYRQKSGTFPKRWIYDTSKLASGVPARFSGSGSGTSYSLTISSMEAEDAATYYCQQWSTNPITFGAGTKLELK
notes: Mouse monoclonal antibody
